According to patent US20170306033A1 (Amgen, published 2017):
Substitutions are numbered along the chain they refer to.

Columns and labels:
human PAC1 receptor = biological target: T1, human PAC1 receptor (human, UniProt P41586 21-468); experiment: cell-based or functional assay
T1 sequence: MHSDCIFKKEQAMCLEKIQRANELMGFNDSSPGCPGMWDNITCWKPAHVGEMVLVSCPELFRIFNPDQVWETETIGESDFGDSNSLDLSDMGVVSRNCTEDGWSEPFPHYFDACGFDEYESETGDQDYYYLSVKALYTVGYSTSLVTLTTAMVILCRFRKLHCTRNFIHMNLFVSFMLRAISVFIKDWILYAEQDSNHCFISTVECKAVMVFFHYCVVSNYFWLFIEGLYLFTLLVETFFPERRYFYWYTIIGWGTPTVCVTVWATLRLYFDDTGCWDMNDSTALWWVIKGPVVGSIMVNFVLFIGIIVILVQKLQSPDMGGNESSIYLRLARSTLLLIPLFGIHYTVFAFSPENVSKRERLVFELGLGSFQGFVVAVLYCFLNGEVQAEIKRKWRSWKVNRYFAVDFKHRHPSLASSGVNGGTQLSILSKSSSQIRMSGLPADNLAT

human CGRP receptor = human CGRP receptor (human, UniProt Q16602 23-461; O60894 27-148); experiment: cell-based or functional assay
Chain of human CGRP receptor (Q16602 23-461 limits assumed, chain 1 of 2): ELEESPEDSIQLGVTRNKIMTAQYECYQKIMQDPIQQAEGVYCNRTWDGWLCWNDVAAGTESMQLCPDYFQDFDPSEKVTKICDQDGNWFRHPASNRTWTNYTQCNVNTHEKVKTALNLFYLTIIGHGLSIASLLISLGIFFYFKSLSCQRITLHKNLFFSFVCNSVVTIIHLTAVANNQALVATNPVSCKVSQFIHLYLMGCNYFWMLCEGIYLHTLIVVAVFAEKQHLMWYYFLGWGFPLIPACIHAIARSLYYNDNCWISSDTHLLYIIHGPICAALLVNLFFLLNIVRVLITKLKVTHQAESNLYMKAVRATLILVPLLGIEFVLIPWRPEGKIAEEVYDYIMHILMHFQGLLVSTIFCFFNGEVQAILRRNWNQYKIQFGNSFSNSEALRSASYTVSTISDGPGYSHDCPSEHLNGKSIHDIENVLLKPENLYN
Chain of human CGRP receptor (O60894 27-148 limits assumed, chain 2 of 2): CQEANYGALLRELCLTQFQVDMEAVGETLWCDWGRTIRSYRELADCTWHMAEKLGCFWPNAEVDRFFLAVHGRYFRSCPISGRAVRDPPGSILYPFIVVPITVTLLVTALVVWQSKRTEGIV

B1: iPS:327694 (bispecific antibody, human IgG1, kappa, lambda, N297G)
light 1: DIQMTQSPSSLSASVGDRITITCRASQSISRYLNWYQQKPGKAPKLLIYAASSLQSGIPSRFSGSGSGTDFTLTINSLQPEDFATYFCQQSYSPPFTFGEGTKVDIKRTVAAPSVFIFPPSDEQLKSGTASVVCLLNNFYPREAKVQWKVDNALQSGNSQESVTEQDSKDSTYSLESTLTLSKADYEKHKVYACEVTHQGLSSPVTKSFNRGEC
heavy 1: not shown
light 2: QSVLTQPPSVSAAPGQKVTISCSGSSSNIGNNYVSWYQQLPGTAPKLLIYDNNKRPSGIPDRFSGSKSGTSTTLGITGLQTGDEADYYCGTWDSRLSAVVFGKGTKLTVLGQPKANPTVTLFPPSSEELQANKATLVCLISDFYPGAVTVAWKADGSPVKAGVETTKPSKQSNNKYAAKSYLSLTPEQWKSHRSYSCQVTHEGSTVEKTVAPTECS
heavy 2: QVQLVESGGGVVQPGRSLRLSCAASGFTFSSFGMHWVRQAPGKELEWVAVISFDGSIKYSVDSVKGRFTISRDNSKNTLFLQMNSLRAEDTAVYYCARDRLNYYESSGYYHYKYYGMAVWGQGTTVTVSSASTKGPSVFPLAPSSKSTSGGTAALGCLVKDYFPEPVTVSWNSGALTSGVHTFPAVLQSSGLYSLESVVTVPSSSLGTQTYICNVNHKPSNTKVDKKVEPKSCDKTHTCPPCPAPELLGGPSVFLFPPKPKDTLMISRTPEVTCVVVDVSHEDPEVKFNWYVDGVEVHNAKTKPCEEQYGSTYRCVSVLTVLHQDWLNGKEYKCKVSNKALPAPIEKTISKAKGQPREPQVYTLPPSRKEMTKNQVSLTCLVKGFYPSDIAVEWESNGQPENNYKTTPPVLKSDGSFFLYSKLTVDKSRWQQGNVFSCSVMHEALHNHYTQKSLSLSPGK
B1 was tested, and the “% inhibition of human PAC1” value (human PAC1 receptor) was 75% and the “% inhibition of human CGRPR” value (human CGRP receptor) was 87%.

B2: iPS:327705 (bispecific antibody, human IgG1, kappa, lambda, N297G)
light 1: DIQLTQSPSFLSASVGDRVTITCRASQSIGRSLHWYQQKPGKAPKLLIKYASQSLSGVPSRFSGSGSGTEFTLTISSLQPEDFATYYCHQSSRLPFTFGPGTKVDIKRTVAAPSVFIFPPSDEQLKSGTASVVCLLNNFYPREAKVQWKVDNALQSGNSQESVTEQDSKDSTYSLESTLTLSKADYEKHKVYACEVTHQGLSSPVTKSFNRGEC
heavy 1: not shown
light 2: B1 light 2 with T72A, K103G
heavy 2: B1 heavy 2 with E44G, E105D
In the case of B2, the “% inhibition of human PAC1” value (human PAC1 receptor) is reported as 56% and the “% inhibition of human CGRPR” value (human CGRP receptor) is reported as 88%.

B3: iPS:327696 (bispecific antibody, human IgG1, kappa, lambda, N297G)
light 1: not shown
heavy 1: not shown
light 2: B1 light 2
heavy 2: B1 heavy 2
B3 was tested, and the “% inhibition of human PAC1” value (human PAC1 receptor) was 10% and the “% inhibition of human CGRPR” value (human CGRP receptor) was 87%.

B4: iPS:327707 (bispecific antibody, human IgG1, kappa, lambda, N297G)
light 1: B1 light 1
heavy 1: not shown
light 2: B1 light 2 with T72A
heavy 2: B1 heavy 2 with E105D
With B4 the “% inhibition of human PAC1” value (human PAC1 receptor) was 72% and the “% inhibition of human CGRPR” value (human CGRP receptor) was 73%.

B5: iPS:327697 (bispecific antibody, human IgG1, kappa, lambda, N297G)
light 1: B2 light 1 with P100E
heavy 1: not shown
light 2: B1 light 2
heavy 2: B1 heavy 2
For B5, the “% inhibition of human PAC1” value (human PAC1 receptor) was 39% and the “% inhibition of human CGRPR” value (human CGRP receptor) was 88%.

B6: iPS:327688 (bispecific antibody, human IgG1, kappa, N297G)
light 1: EIVLTQSPATLSLSPGERATLSCRASQSVGRSLHWYQQKPGQAPRLLIKYASQSLSGIPARFSGSGSGTDFTLTISSLEPEDFAVYYCHQSSRLPFTFGPGTKVDIKRTVAAPSVFIFPPSDEQLKSGTASVVCLLNNFYPREAKVQWKVDNALQSGNSQESVTEQDSKDSTYSLESTLTLSKADYEKHKVYACEVTHQGLSSPVTKSFNRGEC
heavy 1: not shown
light 2: EIVLTQSPGTLSLSPGERATLSCRASQSVSSGYLTWYQQKPGQAPRLLIYGASSRATGIPDRFSGSGSGTDFTLTISRLEPEDFAVYYCQQYGNSLSRFGQGTKLEIKRTVAAPSVFIFPPSDEQLKSGTASVVCLLNNFYPREAKVQWKVDNALQSGNSQESVTEQDSKDSTYSLKSTLTLSKADYEKHKVYACEVTHQGLSSPVTKSFNRGEC
heavy 2: not shown
B6 was tested, and the “% inhibition of human PAC1” value (human PAC1 receptor) was 103% and the “% inhibition of human CGRPR” value (human CGRP receptor) was 89%.

B7: iPS:327706 (bispecific antibody, human IgG1, kappa, lambda, N297G)
light 1: B6 light 1
heavy 1: not shown
light 2: B1 light 2 with T72A, K103G
heavy 2: B1 heavy 2 with E44G, E105D
In the case of B7, the “% inhibition of human PAC1” value (human PAC1 receptor) is reported as 103% and the “% inhibition of human CGRPR” value (human CGRP receptor) is reported as 87%.

B8: iPS:327693 (bispecific antibody, human IgG1, kappa, lambda, N297G)
light 1: B6 light 1
heavy 1: not shown
light 2: B1 light 2 with K103G
heavy 2: B1 heavy 2 with E44G
For B8, the “% inhibition of human PAC1” value (human PAC1 receptor) was 82% and the “% inhibition of human CGRPR” value (human CGRP receptor) was 76%.

B9: iPS:326634 (bispecific antibody, human IgG2, kappa, lambda)
light 1: B2 light 1
heavy 1: QVQLVESGAEVVKPGASVKVSCKASGFTFSRFAMHWVRQAPGQGLEWMGVISYDGGNKYYAESVKGRVTMTRDTSTSTLYMELSSLRSEDTAVYYCARGYDVLTGYPDYWGQGTLVTVSSASTKGPSVFPLAPCSRSTSESTAALGCLVKDYFPEPVTVSWNSGALTSGVHTFPAVLQSSGLYSLKSVVTVPSSNFGTQTYTCNVDHKPSNTKVDKTVERKCCVECPPCPAPPVAGPSVFLFPPKPKDTLMISRTPEVTCVVVDVSHEDPEVQFNWYVDGVEVHNAKTKPREEQFNSTFRVVSVLTVVHQDWLNGKEYKCKVSNKGLPAPIEKTISKTKGQPREPQVYTLPPSREEMTKNQVSLTCLVDGFYPSDIAVEWESNGQPENNYDTTPPMLDSDGSFFLYSDLTVDKSRWQQGNVFSCSVMHEALHNHYTQKSLSLSPGK
light 2: not shown
heavy 2: not shown
In the case of B9, the “% inhibition of human PAC1” value (human PAC1 receptor) is reported as 43% and the “% inhibition of human CGRPR” value (human CGRP receptor) is reported as 66%.
